Data reported in US20220249679A1, “BI-SPECIFIC BINDING AGENTS TARGETING SYNDECAN-1 AND FIBROBLAST GROWTH FACTOR RECEPTOR” (Mitsubishi Tanabe Pharma Corporation, priority 2018, published 2022).
Where “and” joins values, the source holds several entries; their conditions need not be identical. Equal entries are not always repeated.

Tests used:
Human CD138 His (human) [1] = molecular target: Human CD138 His (human) (UniProt P18827); test: SPR, summary table
Human CD138 His (human) [2] = molecular target: Human CD138 His (human) (UniProt P18827); test: SPR (BioRad Proteon), CD138 His immobilized, bivalent analyte fit

Sequence of Human CD138 His (human) (P18827 23-254 limits assumed): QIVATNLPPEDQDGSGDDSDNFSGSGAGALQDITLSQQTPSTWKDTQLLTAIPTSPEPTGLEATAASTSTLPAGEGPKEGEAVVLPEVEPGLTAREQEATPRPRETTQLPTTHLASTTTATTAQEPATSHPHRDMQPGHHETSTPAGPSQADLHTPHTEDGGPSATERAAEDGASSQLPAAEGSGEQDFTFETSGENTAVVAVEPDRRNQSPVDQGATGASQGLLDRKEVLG

Kd (Human CD138 His (human) [1]): 2 nM
Kd (Human CD138 His (human) [2]): 1.95 nM and 2 nM
koff (Human CD138 His (human) [2]): 0.000666 s⁻¹
kon (Human CD138 His (human) [2]): 342000 M⁻¹ s⁻¹
Substance: mBT062 (antibody)
